Laboratory results as given in patent US20050154189A1 (MAXYGEN, published 2005).

Target: T1, Soluble CTLA-4-Ig (human, UniProt P16410 36-161, FITC-conjugated in the two-colour FACS assays; unlabelled and detected with FITC goat anti-human IgG in the concentration-dependent assay)
T1 construct: extracellular domain; Bought from R&D Systems; also called sCTLA-4-Ig; CTLA-4-Ig Fc; not shown: Fc portion of human IgG1
Experiment: two-colour FACS profile on transfected cells; score of preference for CTLA-4-Ig over CD28-Ig vs WT hB7-1

T1 sequence (P16410 36-161): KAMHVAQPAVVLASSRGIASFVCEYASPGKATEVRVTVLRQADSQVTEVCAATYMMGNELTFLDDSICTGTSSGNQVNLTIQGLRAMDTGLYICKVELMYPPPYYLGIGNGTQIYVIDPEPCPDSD

Row | Binder | Binding Score
1 | Round 2 CTLA4BP 2x1-c9 (ligand) VIHVTKEVKEVATLSCGHNVSAEELAQTRIYWQKEKKMVLTMMSGDMNIWPEYKNRTIFDITNNLSIVILALRPSDEGTYECVVLEYEKDAFKREHLAEVMLSVKADFPTPSITDFEIPTSNIRRIICSTSGGFPEPRLAWMEDGEELNAISTTASQDPETELYTVSSKLDFNMTTNHSFMCLIKYGHLRVNQTFNWNTPKQEHFPDNLLPSWAITLISVNGIFVICCLTHCFAPRCRERRRNERLRRESVCPV | 1
2 | Round 2 CTLA4BP 2x3-h2 (ligand) VIHVTKEVKEVATLSCGHNVSVEELAQTRIYWQKEKKMVLTMMSGDMNIWPEYKNRTIFDITNNLSIVILALRPSDEGTYECVVLKYEKDAFKREHLAEVMLSVKADFPTPSISDFEIPPSNIRRIICSTPGGFPEPRLAWMEDGEELNAISTTVSQDPGTELYAVSSKLDFNMTTNHSFMCLIKYGHLRVNQTFNWNTTKQEHFPDNLLPSWAITLISVKGIFVICCLTYCFAPRWRERKSNERLRRESVRPV | 0
3 | Round 2 CTLA4 A-H3-6 (ligand) GISQVTKSVKEMAALSCDYNISIDELARMRIYWQKDQQMVLSIISGQVEVWPEYKNRTFPDIINNLSLMILALRLSDKGTYTCVVQKNENGSFRREHLTSVTLSIRADFPVPSINDLGNPSPNIRRLICSTSGGFPRPHLYWLENGEELNATNTTLSQDPETKLYMISSELDFNMTSNHSFLCLVKYGDLTVSQTFYWQESKPTPSANQHLTWTIIIPVSAFGISVIIAVILTCLTCRNAAIRRQRRENEVEMQSCSQSP | 1
4 | Round 2 CTLA4BP 2x2-f3 (ligand) VIYVTKEVKEVATLSCGHNVSVEELAQTRIYWQKEKKMVLIMMSGDMNIWPEYKNRTIFDITNNLSIVILALRPSDEGTECVVLKYEKDAFKREHLAEVTLSVKADFPTPSISDFEIPPSNIRRIICSTSGGFPEPHLSWLENGEELNAINTTVSQDPGTELYTVSSKLDFNMTTNHSFMCLIKYGHLRVNQTFNWNTPKQEHFPDNLLPSWAITLISVNGIFVICCLTYCFAPRCRERRRNERLRRESVCPV | 1
5 | Round 2 CTLA4BP 2x4-g9 (ligand) VIHVTKEVKEVATLSCGHNVSVEELAQTRIYWQKDKKMVLTMMSGDMNIWPEYKNQTIFDITNNLSIVILALRPSDEGTYECVVLKYEKDAFKQEHLAEVMLSVKADFPTPSISDFEIPPSNIRRIICSTSGGFPEPRLAWMEDGEELNAISTTVSQDPGTELCTVSSKLDFNMTTNHSFMCLIRYGHLRVNQTFNWNTPKQEHFPDNLLPSWAITLISVKGIFVICCLTYCFAPRGRERKSNGRLRRESVHPV | 1
6 | Round 2 CTLA4BP-5x2-4c (ligand) VIHVTKEVKEVATLSCGLNVSVEELAQTRIYWQKEKKMVLTMMSGDMNIWPEYKNRTIFDITNNLSIVILALRPSDEGTYECVVLEYEKDAFKREHLAEVMLSVKADFPTPSISDFEIPPSNIRRIICSTSGGFPEPHLSWLENGEELNGINTTVSQDPETELYTVSSKLDFNMTTNRSFVCLIKYGHLRVNQTFNWNTPKQEHFPDNLLPSWAITLISVNGIFVICCLTYCFAPRCRERRRNERLRRESVHPV | 1
7 | Round 2 CTLA4BP-5x3-6f (ligand) VIHVTKEVKEVATLSCGHNVSVEELAQTRIYWQKGKKMVLTMMSGDMNIWPEYKNRTIFDITNNLSIVILALRPSDEGTYECVVLEYEKDAFKREHLAEVMLSVKADFPTPSISDFEIPTSNIRRIICSTSGGFPEPHLSWLENGEELNAINTTASQDPETELYTVSSKLDFNMTTNHSFMCLIKYGHLRVNQTFNWNTPKQEHFPDNLLPSWAITLISANGIFVICCLAYCFAPGCRERKSNERLRRESVRPV | 2
8 | Round 2 CTLA4BP-5x9-12c (ligand) VIHVTKEVKEVATLSCGHNVSVEELAQTRIHWQKEKKMVLTMMSGDMNIWPEYKNRTIFDITNNLSIVILALRPSDEGTYECVVLKYEKDAFKREHLAEVMLSVKADFPTPSITDFEIPPSNIRRIICSTSGGFPEPHLSWLENGEELNAINTTASQDPETELYTVSSKLDFNMTTNHSFMCLIKYGHLRVNQTFNWNTPKQEHFPDNLLPSWAITLISVNGIFVICCLTYCFAPRCRERKSNERLRRESVRPV | 2
9 | Round 2 CTLA4BP-5x4-11d (ligand) VIHVTKEVKEVATLSCGLNVSVEELAQTRIHWQKEKKMVLTMMSGDMNIWPEYKNRTIFDITNNLSIVILALRPSDEGTYECVVLKYDKDAFKREHLAEVTLSVKADFPTPSISDFEIPPSNIRRIICSTSGGFPEPHLSWLENGEELNAINTTVSQDPETELYTVSSKLDFNMTANHSFVCLIKYGHLRVNQTFNWNTPKQEHFPDNLLPSWAITLISVNGIFVICCLTYRFAPRCRERKSNERLRRESVRPV | 2
10 | Round 2 CTLA4BP-5x2-8c (ligand) VIHMTKEVKEVATLSCGHNVSVEELAQTRIYWQKEKKMVLTMMSGDMNIWPEYKNRTIFDITNNLSIVILALRPSDEGTYECVVLKYEKDAFKQEHLAEVMLSVKADFPTPSITDFEIPPSNIRRIICSTSGGFPEPHLFWLENGEELNAINTTVSQDPETELYAVSSKLDFNMTTNHSFVCLIKYGHLRVNQTFNWNTPKQEHFPDNLLPSWAITLISANGIFVICCLTYCFAPRCRERRRNERLRRESVHPV | 2
11 | Round 2 CTLA4BP-5x4-12c (ligand, Full-length clone on transiently or stably transfected 293 cells; The end 288 is the end of the entry as counted; also called R2 CTLA-4BP 5x4-12c; clone 12c) VIHVTKEVKEVATLSCGHNVSVEELAQTRIHWQKEKKMVLTMMSGDMNIWPEYKNRTIFDITNNLSIVILALRPSDEGTYECVVLKYEKDAFKREHLAEVMLSVKADFPTPSISDFEIPPSNIRRIICSTSGGFPEPHLFWLENGEELNAINTTVSQDPETELYTVSSKLDFNMTTNHSFMCLIKYGHLRVNQTFNWNTPKQEHFPDNLLPSWAITLISANGIFVICCLTYRFAPRCRERKSNETLRRESVRPV | 2
12 | Round 2 CTLA4BP-5x8-1f (ligand) VIHVTKEVKEVATLSCGHNVSVEELAQTRIHWQKEKKMVLTMMSGDMNIWPEYKNRTIFDITNNLSIVILALRPSDEGTYECVVLKYEKDAFKREHLAEVMLSVKADFPTPSITDFEIPPSNIRRIICSASGGFPEPHLFWLENGEELNAINTTVSQDPETELYAVSSKLDFNMTTNHSFMCLIRYGHLRVNQTFNWNTPKQEHFPDNLLPSWAITLISVNGIFVICCLTYCFAPRCRERKSNERLRRESVRPV | 2
13 | Round 2 CTLA4BP-5x4-1f (ligand) VIHVTKEVKEVATLSCGHNVSVEELAQTRIHWQKEKKMVLTMMSGDMNIWPEYKNRTIFDITNNLSIVILALRPSDEGTYECVVLKYEKDAFKREHLAEVMLSVKADFPTPSISDFEIPTSNIRRIICSTSGGFPEPHLFWLENGEELNAINTTVSQDPETELYTVSSKLDFNMTTNHSFMCLIKYGHLRVNQTFNWNTPKQEHFPDNLLPSWAITLISVNGIFVICCLTYCFAPRCRERRRNERLRRESVCPV | 2
14 | Round 2 CTLA4BP-5x6-9d (ligand) VIHVTKEVKEVATLSCGHNVSVEELAQTRIHWQKEKKMVLTMMSGDMNIWPEYKNRTIFDITNNLSIVILALRPSDEGTYECVVLKYEKDAFKREHLAEVMLSVKADFPTPSISDFEIPTSNIRRIICSTSGGFPEPHLSWLENGEELNAINTTVSQDPETELYTVSSKLDFNMTANHSFVCLIKYGHLRVNQTFNWNTPKQEHFPDNLLPSWAITLISVNGIFVICCLTYCFAPRCRERRRNERLRRESVRPV | 2
15 | Round 2 CTLA4BP-5x3-11b (ligand) VIHVTKEVKEVATLSCGHNVSVEELAQTRIYWQKEKKMVLTMMSGDMNIWPEYKNRTIFDITNNLSIVILALRSSDEGTYECVVLKYEKDAFKREHLAEVTLSVKADFPTPSITDFEIPPSNIRRIICSTSGGFPEPHLSWLENGEELNAISTTVSQDPETELYTVSSKLDFNMTTNRSFVCLIKYGHLRVNQTFNWNTPKQEHFPDNLLPSWAITLISVNGIFVICCLTYCFAPRCRERRSNERLRRESVRPV | 1
16 | Round 2 CTLA4BP-5x5-2e (ligand) VIHVTKEVKEVATLSCGLNVSVEELAQTRIHWQKEKKMVLTMMSGDMNIWPEYKNRTIFDITNNLSIVILALRPSDEGTYECVVLKYEKDAFKREHLAEVMLSVKADFPTPSISDFEIPPSNIRRIICSTSGGFPEPHLSWLENGEELNAINTTVSQDPETELYAVSSKLDFNMTTNHSFMCLIKYGHLRVNQTFNWNTPKQEHFPDNLLPSWAITLISVNGIFVICCLTYCFAPRCRERRRNETLRRESVRPV | 2
17 | Round 2 CTLA4BP-5x2-7b (ligand) VIHVTKEVKEVATLSCGHNVSVEELAQTRIHWQKEKKMVLTMMSGDMNIWPEYKNRTIFDITNNLSIVILALRPSDEGTYECVVLKYEKDAFKREHLAEVTLSVKAGFPTPSITDFEIPPSNIRRIICSTSGGFPEPHLSWLENGEELNAINTTVSQDPGTELYTVSSKLDFNMTANHSFVCLIKYGHLRVNQTFNWNTPKQEHFPDNLLPSWAITLISANGIFVICCLTYCFAPRCRERRRNERLRRESVRPV | 1
18 | Round 2 CTLA4BP-5x5-6e (ligand) VIHVTKEVKEVATLSCGHNVSVEELAQTRIHWQKEKKMVLTMMSGDMNIWPEYKNRTIFDITNNLSIVILALRPSDEGTYECVVLKYEKDAFKREHLAEVMLSVKADFPTPSITDFEIPPSNIRRIICSTSGGFPEPHLSWLENGEELNAISTTVSQDPETELYTVSSKLDFNMTTNHSFMCLIKYGHLRVNQTFNWNTTKQEHFPDNLLPSWAITLISANGIFVICCLTHCFAPRCRERKRNERLRRESVRPV | 2
19 | Round 2 CTLA4BP-5x3-10e (ligand) VIHVTKEVKEVATLSCGHNVSVEELAQTRIYWQKEKKMVLTMMSGDMNIWPEYKNRTIFDITNNLSIVILALRPSDEGTYECVVLEYEKDAFKREHLAEVTLSVKADFPTPSISDFEIPPSNIRRIICSTSGGFPEPHLFWLENGEELNAINTTVSQDPETELYAVSSKLDFNMTTNHSFMCLIKYGHLRVNQTFNWNTPKQEHFPDNLLPSWAITLISANGIFVICCLTYCFAPRCRERKSNERLRRESVHPV | 2
20 | Round 2 CTLA4BP 2x1-e2 (ligand) VIHVTKEVKEVATLSCGHNVSDEELAQTRIHWQKEKKMVLTMMSGDMNIWPEYKNRTIFDITNNLSIVILALRPSDEGTYECVVLKYEKDAFKREHLAEVTLSVKADFPTPSISDFEIPPSNIRRIICSTSGGFPEPHLSWLENGEELNAINTTVSQDPGTELYTVSSKLDFNMTTNHSFMCLIKYGHLRVNQTFNWNTPKQEHFPDNLLPSAITLISANGIFVICCLTYCFAPRCRERRRNERLRRESIHPV | 1
